B1: humanised anti-TnMUC1 scFv H3-L3, VH-VL orientation (construct 6D25) (scFv)
scFv: QVQLVQSGAEVKKPGSSVKVSCKASGYTFTDHAIHWVRQAPGQGLEWMGHFSPGNTDIKYNDKFKGRVTITADKSTSTAYMELSSLRSEDTAVYYCKTSTFFFDYWGQGTTVTVSSGGGGSGGGGSGGGGSGGGGSELVMTQSPDSLAVSLGERATINCKSSQSLLNSGDQKNYLTWYQQKPGQPPKLLIFWASTRESGVPDRFSGSGSGTDFTLTISSLQAEDVAVYYCQNDYSYPLTFGQGTKLEIKAAAHHHHHHH
B2: humanised anti-TnMUC1 scFv L2-H1 (construct 6D14) (scFv)
scFv: DIVMTQSPDSLAVSLGERATINCKSSQSLLNSGDQKNYLTWYQQKPGQPPKLLIFWASTRESGVPDRFSGSGSGTDFTLTISSLQAEDVAVYYCQNDYSYPLTFGQGTKLEIKGGGGSGGGGSGGGGSGGGGSQVQLVQSGAEVKKPGSSVKVSCKASGYTFTDHAIHWVRQAPGQGLEWMGHFSPGNTDIKYNDKFKGRVTITADKSTSTAYMELSSLRSEDTAVYYCARSTFFFDYWGQGTTVTVSSAAAHHHHHH
B3: humanised anti-TnMUC1 scFv L3-H4 (construct 6D23) (scFv)
scFv: ELVMTQSPDSLAVSLGERATINCKSSQSLLNSGDQKNYLTWYQQKPGQPPKLLIFWASTRESGVPDRFSGSGSGTDFTLTISSLQAEDVAVYYCQNDYSYPLTFGQGTKLEIKGGGGSGGGGSGGGGSGGGGSQVQLVQSGAEVKKPGSSVKVSCKASGYTFTDHAIHWVRQAPGQGLEWMGHFSPGNTDIKYNDKFKGRVTITADKSTSTAYMELSSLRSEDTAVYFCARSTFFFDYWGQGTTVTVSSAAAHHHHHH
B4: humanised anti-TnMUC1 scFv L3-H2 (construct 6D21) (scFv)
scFv: ELVMTQSPDSLAVSLGERATINCKSSQSLLNSGDQKNYLTWYQQKPGQPPKLLIFWASTRESGVPDRFSGSGSGTDFTLTISSLQAEDVAVYYCQNDYSYPLTFGQGTKLEIKGGGGSGGGGSGGGGSGGGGSQVQLVQSGAEVKKPGSSVKVSCKASGYTFTDHAIHWVRQAPGQGLEWIGHFSPGNTDIKYNDKFKGRATLTVDRSTSTAYMELSSLRSEDTAVYYCARSTFFFDYWGQGTTVTVSSAAAHHHHHH
B5: humanised anti-TnMUC1 scFv L3-H3 (construct 6D22) (scFv)
scFv: ELVMTQSPDSLAVSLGERATINCKSSQSLLNSGDQKNYLTWYQQKPGQPPKLLIFWASTRESGVPDRFSGSGSGTDFTLTISSLQAEDVAVYYCQNDYSYPLTFGQGTKLEIKGGGGSGGGGSGGGGSGGGGSQVQLVQSGAEVKKPGSSVKVSCKASGYTFTDHAIHWVRQAPGQGLEWMGHFSPGNTDIKYNDKFKGRVTITADKSTSTAYMELSSLRSEDTAVYYCKTSTFFFDYWGQGTTVTVSSAAAHHHHHH
B6: humanised anti-TnMUC1 scFv L1-H1 (construct 6D8) (scFv)
scFv: ELVMTQSPDSLAVSLGERATINCKSSQSLLNSGDQKNYLTWYQQKPGQPPKLLIYWASTRESGVPDRFSGSGSGTDFTLTISSLQAEDVAVYYCQNDYSYPLTFGQGTKLEIKGGGGSGGGGSGGGGSGGGGSQVQLVQSGAEVKKPGSSVKVSCKASGYTFTDHAIHWVRQAPGQGLEWMGHFSPGNTDIKYNDKFKGRVTITADKSTSTAYMELSSLRSEDTAVYYCARSTFFFDYWGQGTTVTVSSAAAHHHHHH
B7: humanised anti-TnMUC1 scFv L1-H2 (construct 6D9) (scFv)
scFv: ELVMTQSPDSLAVSLGERATINCKSSQSLLNSGDQKNYLTWYQQKPGQPPKLLIYWASTRESGVPDRFSGSGSGTDFTLTISSLQAEDVAVYYCQNDYSYPLTFGQGTKLEIKGGGGSGGGGSGGGGSGGGGSQVQLVQSGAEVKKPGSSVKVSCKASGYTFTDHAIHWVRQAPGQGLEWIGHFSPGNTDIKYNDKFKGRATLTVDRSTSTAYMELSSLRSEDTAVYYCARSTFFFDYWGQGTTVTVSSAAAHHHHHH
B8: humanised anti-TnMUC1 scFv L2-H2 (construct 6D15) (scFv)
scFv: DIVMTQSPDSLAVSLGERATINCKSSQSLLNSGDQKNYLTWYQQKPGQPPKLLIFWASTRESGVPDRFSGSGSGTDFTLTISSLQAEDVAVYYCQNDYSYPLTFGQGTKLEIKGGGGSGGGGSGGGGSGGGGSQVQLVQSGAEVKKPGSSVKVSCKASGYTFTDHAIHWVRQAPGQGLEWIGHFSPGNTDIKYNDKFKGRATLTVDRSTSTAYMELSSLRSEDTAVYYCARSTFFFDYWGQGTTVTVSSAAAHHHHHH
B9: humanised anti-TnMUC1 scFv L0-H4 (construct 6D5) (scFv)
scFv: DIVMTQSPDSLAVSLGERATINCKSSQSLLNSGDQKNYLTWYQQKPGQPPKLLIYWASTRESGVPDRFSGSGSGTDFTLTISSLQAEDVAVYYCQNDYSYPLTFGQGTKLEIKGGGGSGGGGSGGGGSGGGGSQVQLVQSGAEVKKPGSSVKVSCKASGYTFTDHAIHWVRQAPGQGLEWMGHFSPGNTDIKYNDKFKGRVTITADKSTSTAYMELSSLRSEDTAVYFCARSTFFFDYWGQGTTVTVSSAAAHHHHHH
B10: humanised anti-TnMUC1 scFv L2-H4 (construct 6D17) (scFv)
scFv: DIVMTQSPDSLAVSLGERATINCKSSQSLLNSGDQKNYLTWYQQKPGQPPKLLIFWASTRESGVPDRFSGSGSGTDFTLTISSLQAEDVAVYYCQNDYSYPLTFGQGTKLEIKGGGGSGGGGSGGGGSGGGGSQVQLVQSGAEVKKPGSSVKVSCKASGYTFTDHAIHWVRQAPGQGLEWMGHFSPGNTDIKYNDKFKGRVTITADKSTSTAYMELSSLRSEDTAVYFCARSTFFFDYWGQGTTVTVSSAAAHHHHHH
B11: humanised anti-TnMUC1 scFv L3-H1 (construct 6D20) (scFv)
scFv: ELVMTQSPDSLAVSLGERATINCKSSQSLLNSGDQKNYLTWYQQKPGQPPKLLIFWASTRESGVPDRFSGSGSGTDFTLTISSLQAEDVAVYYCQNDYSYPLTFGQGTKLEIKGGGGSGGGGSGGGGSGGGGSQVQLVQSGAEVKKPGSSVKVSCKASGYTFTDHAIHWVRQAPGQGLEWMGHFSPGNTDIKYNDKFKGRVTITADKSTSTAYMELSSLRSEDTAVYYCARSTFFFDYWGQGTTVTVSSAAAHHHHHH
B12: humanised anti-TnMUC1 scFv L0-H2 (construct 6D3) (scFv)
scFv: DIVMTQSPDSLAVSLGERATINCKSSQSLLNSGDQKNYLTWYQQKPGQPPKLLIYWASTRESGVPDRFSGSGSGTDFTLTISSLQAEDVAVYYCQNDYSYPLTFGQGTKLEIKGGGGSGGGGSGGGGSGGGGSQVQLVQSGAEVKKPGSSVKVSCKASGYTFTDHAIHWVRQAPGQGLEWIGHFSPGNTDIKYNDKFKGRATLTVDRSTSTAYMELSSLRSEDTAVYYCARSTFFFDYWGQGTTVTVSSAAAHHHHHH
B13: humanised anti-TnMUC1 scFv L0-H1 (construct 6D2) (scFv)
scFv: DIVMTQSPDSLAVSLGERATINCKSSQSLLNSGDQKNYLTWYQQKPGQPPKLLIYWASTRESGVPDRFSGSGSGTDFTLTISSLQAEDVAVYYCQNDYSYPLTFGQGTKLEIKGGGGSGGGGSGGGGSGGGGSQVQLVQSGAEVKKPGSSVKVSCKASGYTFTDHAIHWVRQAPGQGLEWMGHFSPGNTDIKYNDKFKGRVTITADKSTSTAYMELSSLRSEDTAVYYCARSTFFFDYWGQGTTVTVSSAAAHHHHHH

In this test the target is T1, MUC1 peptide (non-glycosylated), biotinylated (N-terminal Biotin-PEG2; C-terminal amide).
T1 construct: also called 36-4; 7-36-4
T1 peptide: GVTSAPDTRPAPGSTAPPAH
The test is described as follows: Octet BLI, biotinylated peptide on streptavidin sensors. The procedure: Biotinylated MUC1 peptide (7-36-4) and TnMUC1 peptide (7-36-2) were diluted to 10 μg/ml in Octet Running Buffer (1×PBSF) and loaded onto Octet SA (streptavidin) sensors. The positive control proteins were tested in the Octet assay at a single concentration of 500 nM. All humanised anti-Tn MUC1 scFv expression supernatants were assayed neat.
Data was analysed using the data acquisition software fortéBIO version 8.0.2.5 and the data analysis software fortéBIO version 8.0.2.3.
(In BLI a coated tip is dipped into the sample, and binding shifts an interference pattern.)
On to B1, for which the binding result is “no binding (tested: neat supernatant)”.
Consider B2, for which the binding result is “no binding (tested: neat supernatant)”.
Take B3: the binding result is listed as “no binding (tested: neat supernatant)”.
In the case of B4 it was “no binding (tested: neat supernatant)”; in that of B5, “no binding (tested: neat supernatant)”; in that of B6, “no binding (tested: neat supernatant)”.
In the case of B7, the binding result is “no binding (tested: neat supernatant)”.
For B8, the binding result was “no binding (tested: neat supernatant)”.
Consider B9, for which the binding result is given as “no binding (tested: neat supernatant)”.
In the case of B10, the binding result is on record as “no binding (tested: neat supernatant)”.
In the case of B11 it was “no binding (tested: neat supernatant)”; in that of B12, “no binding (tested: neat supernatant)”.
In the case of B13 it was “no binding (tested: neat supernatant)”.

(Values after patent US20230374151A1 (GlaxoSmithKline, published 2023).)
